{"source": "patent US20160194681", "proteins": {"B1": {"name": "human auto-activating MMP-9 (protein)", "chain": "APRQRQSTLVLFPGDLRTNLTDRQLAEEYLYRYGYTRVAEMRGESKSLGPALLLLQKQLSLPETGELDSATLKAMRTPRCLVPDLGRFQTFEGDLKWHHHNITYWIQNYSEDLPRAVIDDAFARAFALWSAVTPLTFTRVYSRDADIVIQFGVAEHGDGYPFDGKDGLLAHAFPPGPGIQGDAHFDDDELWSLGKGVVVPTRFGNADGAACHFPFIFEGRSYSACTTDGRSDGLPWCSTTANYDTDDRFGFCPSERLYTQDGNADGKPCQFPFIFQGQSYSACTTDGRSDGYRWCATTANYDRDKLFGFCPTRADSTVMGGNSAGELCVFPFTFLGKEYSTCTSEGRGDGRLWCATTSNFDSDKKWGFCPDQGYSLFLVAAHEFGHALGLDHSSVPEALMYPMYRFTEGPPLHKDDVNGIRHLYGPRPEPEPRPPTTTTPQPTAPPTVCPTGPPTVHPSERPTAGPTGPPSAGPTGPPTAGPSTATTVPLSPVDDACNVNIFDAIAEIGNQLYLFKDGKYWRFSEGRGSRPQGPFLIADKWPALPRKLDSVFEERLSKKLFFFSGRQVWVYTGASVLGPRRLDKLGLGADVAQVTGALRSGRGKMLLFSGRRLWRFDVKAQMVDPRSASEVDRMFPGVPLDTHDVFQYREKAYFCQDRFYWRVSSRSELNQVDQVGYVTYDILQCPED"}, "B2": {"name": "inactive human MMP-9 (protein)", "chain": "B1 chain with L81G"}}, "target": "genetically encoded FRET-based MMP-9 activity biosensor with α-helical linker, P09619", "sequence (P09619 whole entry, looked up)": "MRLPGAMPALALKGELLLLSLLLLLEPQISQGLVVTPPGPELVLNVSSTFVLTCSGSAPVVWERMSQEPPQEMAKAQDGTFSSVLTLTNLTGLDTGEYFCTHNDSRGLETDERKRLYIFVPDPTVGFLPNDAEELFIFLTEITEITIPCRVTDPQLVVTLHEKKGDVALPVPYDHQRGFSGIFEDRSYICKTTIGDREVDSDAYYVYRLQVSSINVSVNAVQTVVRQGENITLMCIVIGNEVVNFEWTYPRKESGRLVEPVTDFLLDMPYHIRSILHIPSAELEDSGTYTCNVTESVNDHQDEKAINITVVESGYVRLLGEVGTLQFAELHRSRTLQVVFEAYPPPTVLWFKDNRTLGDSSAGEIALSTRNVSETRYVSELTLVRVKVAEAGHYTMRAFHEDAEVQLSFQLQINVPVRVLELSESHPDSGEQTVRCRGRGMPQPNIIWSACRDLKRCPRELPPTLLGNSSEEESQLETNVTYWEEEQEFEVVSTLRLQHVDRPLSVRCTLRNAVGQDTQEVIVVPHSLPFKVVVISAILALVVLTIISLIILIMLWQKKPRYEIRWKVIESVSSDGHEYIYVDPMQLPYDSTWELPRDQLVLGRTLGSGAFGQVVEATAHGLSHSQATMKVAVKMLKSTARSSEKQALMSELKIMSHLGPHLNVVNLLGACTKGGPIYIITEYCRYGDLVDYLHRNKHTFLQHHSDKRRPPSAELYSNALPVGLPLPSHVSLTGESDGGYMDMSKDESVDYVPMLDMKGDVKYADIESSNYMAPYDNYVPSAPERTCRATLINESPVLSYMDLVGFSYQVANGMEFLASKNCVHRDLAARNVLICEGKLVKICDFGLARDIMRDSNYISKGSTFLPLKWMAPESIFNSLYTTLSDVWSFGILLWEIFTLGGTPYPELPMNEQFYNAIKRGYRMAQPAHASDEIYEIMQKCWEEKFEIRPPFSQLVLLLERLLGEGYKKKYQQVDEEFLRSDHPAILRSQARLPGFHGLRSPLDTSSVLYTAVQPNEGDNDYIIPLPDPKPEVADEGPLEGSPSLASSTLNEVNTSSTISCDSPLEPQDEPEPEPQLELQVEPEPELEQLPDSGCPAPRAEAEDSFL", "note": "Numbering of substitutions follows the chain as printed."}
{"protein": "B1", "values": [{"measurement": "in vitro cleavage of the biosensor in HEK293 lysate, Western blot with anti-GFP antibody", "result": "The MMP-9 activity biosensor is cleaved in vitro by a human auto-activating MMP-9"}]}
{"protein": "B2", "values": [{"measurement": "in vitro cleavage of the biosensor in HEK293 lysate, Western blot with anti-GFP antibody", "result": "Inactive human MMP-9 does not cleave the biosensor"}]}
